Assay results reported in patent US20230272011A1 (AVACTA LIFE SCIENCES, published 2023).
Values belong to the binder of their own block, whether it stands above or below them.

Experiments:
human serum albumin [1] = molecular target: T1, human serum albumin (human, UniProt P02768 25-609); experiment: Biacore sensorgram on serum albumin (HSA)
T1 construct: mature; Bought protein; biotinylated in the Octet and HTRF assays; also called HSA; HuSA

canine serum albumin [2] = molecular target: T2, canine serum albumin (canine, UniProt P49822 25-608); experiment: binding ELISA on coated albumin, pH 6.0, panel 'Canine SA Binding at pH 6.0'
T2 sequence (P49822 25-608 limits assumed): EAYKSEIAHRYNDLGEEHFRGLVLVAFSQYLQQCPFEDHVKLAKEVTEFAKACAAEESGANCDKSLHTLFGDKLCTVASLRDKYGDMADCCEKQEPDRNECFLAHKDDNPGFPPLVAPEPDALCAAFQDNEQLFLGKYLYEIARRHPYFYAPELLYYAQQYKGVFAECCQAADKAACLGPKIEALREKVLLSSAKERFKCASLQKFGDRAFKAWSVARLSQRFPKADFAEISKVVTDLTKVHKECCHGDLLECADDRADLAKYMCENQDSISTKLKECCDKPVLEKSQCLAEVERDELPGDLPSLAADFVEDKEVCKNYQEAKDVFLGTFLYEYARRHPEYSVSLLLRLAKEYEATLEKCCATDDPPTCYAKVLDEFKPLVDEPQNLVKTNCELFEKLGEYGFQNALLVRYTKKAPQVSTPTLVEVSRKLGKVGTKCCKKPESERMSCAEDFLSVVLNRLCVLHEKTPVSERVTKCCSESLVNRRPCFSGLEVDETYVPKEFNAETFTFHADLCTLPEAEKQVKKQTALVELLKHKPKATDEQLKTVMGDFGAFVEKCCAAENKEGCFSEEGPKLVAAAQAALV
Protocol: (§1) Briefly, ELISA was performed as follow:
(§2) Human (Sigma-Aldrich); Cynomolgus and Mouse (Abcam); Equine (Abcam); Canine (Abcam); Mouse (Sigma-Aldrich); Rabbit (Sigma-Aldrich); Porcine (Sigma-Aldrich);, and Rat (Sigma-Aldrich) serum albumin were coated overnight on 96 well plates (Corning Costar) at 1 μg/ml in PBS at the appropriate pH (pH 6.0 or 7.4). Plates were saturated using 5% Casein (Sigma-Aldrich) buffer in PBS. […] Plates were then washed and AFFIMER® proteins were detected using a biotinylated polyclonal antibody anti-Cystatin (R&D System) for 90 minutes. After washing, streptavidin-HRP (Thermo Fisher Scientific) was added and incubated for 30 minutes.

porcine serum albumin [3] = molecular target: T3, porcine serum albumin (porcine, UniProt P08835 25-607); experiment: binding ELISA on coated albumin, pH 6.0, panel 'Porcine SA Binding at pH 6.0'
T3 sequence (P08835 25-607 limits assumed): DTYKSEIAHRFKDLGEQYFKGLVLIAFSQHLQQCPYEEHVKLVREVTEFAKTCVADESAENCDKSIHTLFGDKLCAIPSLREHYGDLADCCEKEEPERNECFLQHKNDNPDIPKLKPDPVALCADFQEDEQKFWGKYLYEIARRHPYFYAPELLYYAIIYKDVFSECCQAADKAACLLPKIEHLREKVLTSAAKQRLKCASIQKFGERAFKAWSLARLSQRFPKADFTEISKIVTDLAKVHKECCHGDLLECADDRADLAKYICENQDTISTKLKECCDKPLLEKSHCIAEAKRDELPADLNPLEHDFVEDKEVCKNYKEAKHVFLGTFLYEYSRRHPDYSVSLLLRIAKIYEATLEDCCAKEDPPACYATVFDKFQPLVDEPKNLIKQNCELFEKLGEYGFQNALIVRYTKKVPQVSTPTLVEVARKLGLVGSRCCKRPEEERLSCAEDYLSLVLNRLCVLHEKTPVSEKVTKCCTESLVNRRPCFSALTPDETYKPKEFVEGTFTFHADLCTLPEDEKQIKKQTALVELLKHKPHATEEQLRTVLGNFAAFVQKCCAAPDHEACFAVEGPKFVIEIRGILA
Protocol: as §1, §2

cynomolgus serum albumin [4] = molecular target: T4, cynomolgus serum albumin (cynomolgus); experiment: Octet biolayer interferometry, biotinylated albumin on SA sensors, pH 7.4
T4 construct: also called CSA; cyno serum albumin
T4 sequence (A2V9Z4 25-608): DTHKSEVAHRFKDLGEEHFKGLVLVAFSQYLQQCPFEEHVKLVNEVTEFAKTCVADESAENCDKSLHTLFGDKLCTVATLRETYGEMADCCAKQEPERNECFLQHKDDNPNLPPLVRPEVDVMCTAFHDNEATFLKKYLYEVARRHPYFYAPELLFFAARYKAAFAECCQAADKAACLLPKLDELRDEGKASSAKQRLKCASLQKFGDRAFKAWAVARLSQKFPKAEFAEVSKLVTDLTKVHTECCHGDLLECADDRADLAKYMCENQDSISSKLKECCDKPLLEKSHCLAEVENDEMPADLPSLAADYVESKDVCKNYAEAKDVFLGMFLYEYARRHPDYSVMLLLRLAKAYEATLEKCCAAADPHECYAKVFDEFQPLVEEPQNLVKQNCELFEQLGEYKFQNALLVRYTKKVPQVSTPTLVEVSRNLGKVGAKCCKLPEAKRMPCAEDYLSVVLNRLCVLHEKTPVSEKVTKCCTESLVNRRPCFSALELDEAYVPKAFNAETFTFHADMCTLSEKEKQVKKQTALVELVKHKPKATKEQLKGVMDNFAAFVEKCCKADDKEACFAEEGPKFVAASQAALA
Protocol: (§3) Biotinylated antigen was captured onto SA sensors at 1 μg/ml for 600 seconds in a buffer comprising PBS-T (0.01% Tween 20)+1% casein at either pH 6.0 or 7.4. Association was carried out for 300 seconds and dissociation for 600 seconds, and regeneration was performed using 10 mM glycine pH 1.5 (GE Healthcare) for 3×5 seconds. All steps were carried out at 1000 rpm and 25° C. Purified AFFIMER® polypeptide in two-fold serial dilutions was analyzed at a starting concentration of approximately 10× K_{D value}. Kinetics analyses were carried out using the Octet data analysis software, subtracting the reference sensor (loaded with antigen), aligning the Y-axis to baseline, and using inter-step correction to align association to dissociation. Savitzky-Golay filtering was applied and the data processed. Analysis of the data was carried out with a 1:1 model, global fit, Rₘₐₓ unlinked by sensor.

human serum albumin [5] = molecular target: T1, human serum albumin; experiment: as above
Protocol: as §3

mouse serum albumin [6] = molecular target: T5, mouse serum albumin (mouse, UniProt P07724 25-608); experiment: as above
T5 construct: also called MSA
T5 sequence (P07724 25-608 limits assumed): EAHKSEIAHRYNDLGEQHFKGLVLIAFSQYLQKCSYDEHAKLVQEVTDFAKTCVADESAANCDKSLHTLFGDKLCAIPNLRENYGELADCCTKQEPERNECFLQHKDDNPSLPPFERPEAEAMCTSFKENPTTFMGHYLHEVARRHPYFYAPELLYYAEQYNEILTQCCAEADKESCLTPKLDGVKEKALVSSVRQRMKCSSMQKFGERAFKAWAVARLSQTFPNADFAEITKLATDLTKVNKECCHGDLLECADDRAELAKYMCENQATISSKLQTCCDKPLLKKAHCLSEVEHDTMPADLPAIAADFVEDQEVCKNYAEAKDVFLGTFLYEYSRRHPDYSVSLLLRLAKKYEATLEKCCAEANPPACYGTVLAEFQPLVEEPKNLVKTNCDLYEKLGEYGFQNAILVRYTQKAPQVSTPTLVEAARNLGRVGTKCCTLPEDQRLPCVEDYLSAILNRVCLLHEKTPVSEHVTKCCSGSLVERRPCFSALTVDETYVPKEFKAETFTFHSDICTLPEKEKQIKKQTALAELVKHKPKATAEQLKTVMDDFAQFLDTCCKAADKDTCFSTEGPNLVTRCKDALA
Protocol: as §3

mouse serum albumin [7] = molecular target: T5, mouse serum albumin; experiment: binding ELISA on coated albumin, pH 6.0, panel 'MSA Binding at pH 6.0'
Protocol: as §1, §2

cynomolgus serum albumin [8] = molecular target: T4, cynomolgus serum albumin; experiment: BLI (Octet), biotinylated albumin on SA sensor, pH 6.0
Protocol: as §3

human serum albumin [9] = molecular target: T1, human serum albumin; experiment: as above
Protocol: as §3

mouse serum albumin [10] = molecular target: T5, mouse serum albumin; experiment: as above
Protocol: as §3

cynomolgus serum albumin [11] = molecular target: T4, cynomolgus serum albumin; experiment: Octet biolayer interferometry, biotinylated albumin on SA sensors, pH 6.0
Protocol: as §3

human serum albumin [12] = molecular target: T1, human serum albumin; experiment: as above
Protocol: as §3

mouse serum albumin [13] = molecular target: T5, mouse serum albumin; experiment: as above
Protocol: as §3

rat serum albumin [14] = molecular target: T6, rat serum albumin (rat, UniProt P02770 25-608); experiment: binding ELISA on coated albumin, pH 6.0, panel 'Rat SA Binding at pH 6.0'
T6 sequence (P02770 25-608 limits assumed): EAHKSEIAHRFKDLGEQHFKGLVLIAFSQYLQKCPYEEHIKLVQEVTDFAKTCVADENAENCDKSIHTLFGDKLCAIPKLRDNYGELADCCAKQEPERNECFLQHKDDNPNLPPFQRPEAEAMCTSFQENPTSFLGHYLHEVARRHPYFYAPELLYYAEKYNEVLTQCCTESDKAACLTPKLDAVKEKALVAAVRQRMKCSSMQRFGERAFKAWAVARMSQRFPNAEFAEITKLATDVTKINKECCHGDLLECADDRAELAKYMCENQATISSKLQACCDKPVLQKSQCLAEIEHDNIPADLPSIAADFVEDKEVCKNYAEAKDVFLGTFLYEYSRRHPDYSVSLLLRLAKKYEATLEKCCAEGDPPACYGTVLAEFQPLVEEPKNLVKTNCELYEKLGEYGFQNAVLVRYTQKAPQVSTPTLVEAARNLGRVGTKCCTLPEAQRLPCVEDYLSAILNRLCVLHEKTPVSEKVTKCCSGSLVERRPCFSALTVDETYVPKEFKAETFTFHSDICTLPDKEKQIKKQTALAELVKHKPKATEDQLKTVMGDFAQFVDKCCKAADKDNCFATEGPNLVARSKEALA
Protocol: as §1, §2

human serum albumin [15] = molecular target: T1, human serum albumin; experiment: binding ELISA on coated albumin, pH 6.0, panel 'HSA Binding at pH 6.0'
Protocol: as §1, §2

cynomolgus serum albumin [16] = molecular target: T4, cynomolgus serum albumin; experiment: binding ELISA on coated albumin, pH 6.0, panel 'CSA Binding at pH 6.0'
Protocol: as §1, §2

cynomolgus serum albumin [17] = molecular target: T4, cynomolgus serum albumin; experiment: BLI (Octet), biotinylated albumin on SA sensor, pH 7.4
Protocol: as §3

human serum albumin [18] = molecular target: T1, human serum albumin; experiment: as above
Protocol: as §3

mouse serum albumin [19] = molecular target: T5, mouse serum albumin; experiment: as above
Protocol: as §3

cynomolgus serum albumin [20] = molecular target: T4, cynomolgus serum albumin; experiment: binding ELISA, coated albumin, pH 7.4
Protocol: as §1, §2

porcine serum albumin [21] = molecular target: T3, porcine serum albumin; experiment: binding ELISA, coated albumin, pH 7.4
Protocol: as §1, §2

canine serum albumin [22] = molecular target: T2, canine serum albumin; experiment: binding ELISA, coated albumin, pH 7.4
Protocol: as §1, §2

human serum albumin [23] = molecular target: T1, human serum albumin; experiment: binding ELISA, coated albumin, pH 7.4
Protocol: as §1, §2

mouse serum albumin [24] = molecular target: T5, mouse serum albumin; experiment: binding ELISA, coated albumin, pH 7.4
Protocol: as §1, §2

rat serum albumin [25] = molecular target: T6, rat serum albumin; experiment: binding ELISA, coated albumin, pH 7.4
Protocol: as §1, §2

equine serum albumin [26] = molecular target: T7, equine serum albumin (equine, UniProt P35747 25-607); experiment: binding ELISA, coated albumin, pH 7.4
T7 sequence (P35747 25-607 limits assumed): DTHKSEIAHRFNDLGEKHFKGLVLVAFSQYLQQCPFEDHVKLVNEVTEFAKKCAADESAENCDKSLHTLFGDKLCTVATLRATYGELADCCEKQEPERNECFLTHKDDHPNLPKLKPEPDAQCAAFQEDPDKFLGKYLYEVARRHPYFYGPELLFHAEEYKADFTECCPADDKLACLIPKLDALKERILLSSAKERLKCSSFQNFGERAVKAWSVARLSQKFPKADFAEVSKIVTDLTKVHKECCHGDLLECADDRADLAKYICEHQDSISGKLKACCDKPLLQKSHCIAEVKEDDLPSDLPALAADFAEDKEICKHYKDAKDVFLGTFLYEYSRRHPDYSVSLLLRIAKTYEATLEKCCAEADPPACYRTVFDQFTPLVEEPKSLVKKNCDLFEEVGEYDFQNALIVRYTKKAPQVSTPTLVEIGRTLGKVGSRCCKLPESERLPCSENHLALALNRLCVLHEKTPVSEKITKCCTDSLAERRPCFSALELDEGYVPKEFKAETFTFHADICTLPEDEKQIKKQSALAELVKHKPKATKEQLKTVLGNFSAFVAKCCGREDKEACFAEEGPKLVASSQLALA
Protocol: as §1, §2

rabbit serum albumin = rabbit serum albumin (rabbit, UniProt P49065 25-608); experiment: binding ELISA, coated albumin, pH 7.4
Sequence of rabbit serum albumin (P49065 25-608 limits assumed): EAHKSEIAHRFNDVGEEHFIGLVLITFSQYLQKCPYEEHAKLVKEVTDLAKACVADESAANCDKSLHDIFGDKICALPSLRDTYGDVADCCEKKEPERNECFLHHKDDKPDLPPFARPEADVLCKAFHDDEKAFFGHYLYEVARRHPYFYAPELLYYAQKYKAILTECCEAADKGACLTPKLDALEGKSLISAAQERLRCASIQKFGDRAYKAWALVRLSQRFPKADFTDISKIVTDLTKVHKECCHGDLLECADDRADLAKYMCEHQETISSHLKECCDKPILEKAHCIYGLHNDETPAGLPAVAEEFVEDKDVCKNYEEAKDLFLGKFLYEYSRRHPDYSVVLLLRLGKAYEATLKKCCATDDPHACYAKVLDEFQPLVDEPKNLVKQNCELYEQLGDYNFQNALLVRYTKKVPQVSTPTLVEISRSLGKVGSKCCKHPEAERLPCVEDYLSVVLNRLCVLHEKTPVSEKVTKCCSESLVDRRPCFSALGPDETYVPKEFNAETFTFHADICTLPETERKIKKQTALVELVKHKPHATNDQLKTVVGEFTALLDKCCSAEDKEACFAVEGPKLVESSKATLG
Protocol: as §1, §2

human serum albumin [27] = molecular target: T1, human serum albumin; experiment: Biacore, immobilised HSA, running buffer pH 7.4
Protocol: (§4) Affinities for mouse, human, and cynomolgus serum were also measured at pH 7.4 for four (4) AFFIMER® binders using surface plasmon resonance (SPR) (FIG. 5, Table 5). […] A concentration titration of AFFIMER® monomers was run as analyte at a flow rate of 30 μl/min or 60 μl/min. Fc2-1, Fc3-1 and Fc4-1 kinetic data was blank subtracted and fit to a 1:1 Langmuir binding model (BIAcore Evalution software; GE) to calculate KD values.

cynomolgus serum albumin [28] = molecular target: T4, cynomolgus serum albumin; experiment: SPR (Biacore T200), albumin amine-coupled to CM5, Affimer analyte, pH 7.4
Protocol: as §4

human serum albumin [29] = molecular target: T1, human serum albumin; experiment: as above
Protocol: as §4

mouse serum albumin [30] = molecular target: T5, mouse serum albumin; experiment: as above
Protocol: as §4

human serum albumin [31] = molecular target: T1, human serum albumin; experiment: Biacore, immobilised HSA, running buffer pH 6.0
From the text: (§5) […] Fc2-1, Fc3-1 and Fc4-1 kinetic data was blank subtracted and fit to a 1:1 Langmuir binding model (BIAcore Evalution software; GE) to calculate KD values.

mouse serum albumin [32] = molecular target: T5, mouse serum albumin; experiment: Biacore, immobilised MSA, pH 6.0
From the text: as §5

equine serum albumin [33] = molecular target: T7, equine serum albumin; experiment: binding ELISA on coated albumin, pH 7.4, panel 'Equine SA Binding at pH 7.4' (Table 6 gives NA for this pair)
Protocol: as §1, §2

binding result (human serum albumin [1]): no binding
B1: HSA-41 loop 4 deletion (designed binder)
chain: MIPRGLSEAKPATPEIQEIVDKVKPQLEEKTNETYGKLEAVQYKTQVLANFFQRRWPGSTNYYIKVRAGDNKYMHLKVFNGPADRVLTGYQVDKNKDDELTGFHHHHHH
notes: also called loop 4 knockout mutant (deletion)

binding result (human serum albumin [1]): no binding
B2: HSA-41 x9 glycine loops (designed binder)
chain: MIPRGLSEAKPATPEIQEIVDKVKPQLEEKTNETYGKLEAVQYKTQVLANFFQRRWPGSTNYYIKVRAGDNKYMHLKVFNGPGGGGGGGGGADRVLTGYQVDKNKDDELTGFHHHHHH
notes: also called HSA-41 loop 4 replaced with 9 glycine residues; loop 4 knockout mutant

EC50 (read off the curve) (canine serum albumin [2]): ~2 nM
EC50 (read off the curve) (porcine serum albumin [3]): ~9 nM
koff (cynomolgus serum albumin [4]): 0.0037 s⁻¹
kon (cynomolgus serum albumin [4]): 44600 M⁻¹ s⁻¹
koff (human serum albumin [5]): 0.00317 s⁻¹
kon (human serum albumin [5]): 208000 M⁻¹ s⁻¹
koff (mouse serum albumin [6]): 0.000575 s⁻¹
kon (mouse serum albumin [6]): 176000 M⁻¹ s⁻¹
EC50 (read off the curve) (mouse serum albumin [7]): ~0.06 nM
Kd (cynomolgus serum albumin [8]): 18.5 nM
Kd (human serum albumin [9]): 21.1 nM
Kd (mouse serum albumin [10]): 3.7 nM
koff (cynomolgus serum albumin [11]): 0.00218 s⁻¹
kon (cynomolgus serum albumin [11]): 118000 M⁻¹ s⁻¹
koff (human serum albumin [12]): 0.00245 s⁻¹
kon (human serum albumin [12]): 116000 M⁻¹ s⁻¹
kon (mouse serum albumin [13]): 166000 M⁻¹ s⁻¹
EC50 (read off the curve) (rat serum albumin [14]): ~0.04 nM
EC50 (read off the curve) (human serum albumin [15]): ~1 nM
EC50 (read off the curve) (cynomolgus serum albumin [16]): ~0.6 nM
Kd (cynomolgus serum albumin [17]): 83 nM
Kd (human serum albumin [18]): 15.3 nM
Kd (mouse serum albumin [19]): 3.3 nM
EC50 (cynomolgus serum albumin [20]): 0.43 nM
EC50 (porcine serum albumin [21]): 2.6 nM
EC50 (canine serum albumin [22]): 3.17 nM
EC50 (human serum albumin [23]): 0.47 nM
EC50 (mouse serum albumin [24]): 0.03 nM
EC50 (rat serum albumin [25]): 0.39 nM
EC50 (equine serum albumin [26]): 0.25 nM
EC50 (rabbit serum albumin): 211 nM
B3: HSA-31 (designed binder)
chain: MIPRGLSEAKPATPEIQEIVDKVKPQLEEKTNETYGKLEAVQYKTQVLAVWGPEYQHQSTNYYIKVRAGDNKYMHLKVFNGPNAGWPLVPEADRVLTGYQVDKNKDDELTGFHHHHHH

EC50 (read off the curve) (canine serum albumin [2]): ~10 nM
Kd (human serum albumin [27]): 109 nM
koff (human serum albumin [27]): 0.0078 s⁻¹
kon (human serum albumin [27]): 71400 M⁻¹ s⁻¹
Kd (cynomolgus serum albumin [8]): 68.7 nM
Kd (human serum albumin [9]): 17.9 nM
Kd (mouse serum albumin [10]): 618 nM
EC50 (read off the curve) (rat serum albumin [14]): ~3 nM
EC50 (read off the curve) (human serum albumin [15]): ~0.2 nM
Kd (cynomolgus serum albumin [28]): 542 nM
koff (cynomolgus serum albumin [28]): 0.0261 s⁻¹
kon (cynomolgus serum albumin [28]): 48300 M⁻¹ s⁻¹
Kd (human serum albumin [29]): 146 nM
koff (human serum albumin [29]): 0.00789 s⁻¹
kon (human serum albumin [29]): 54100 M⁻¹ s⁻¹
Kd (mouse serum albumin [30]): 2180 nM
koff (mouse serum albumin [30]): 0.0742 s⁻¹
kon (mouse serum albumin [30]): 34100 M⁻¹ s⁻¹
EC50 (read off the curve) (cynomolgus serum albumin [16]): ~0.1 nM
Kd (cynomolgus serum albumin [17]): 106 nM
Kd (human serum albumin [18]): 36.1 nM
Kd (mouse serum albumin [19]): 981 nM
Kd (human serum albumin [31]): 152 nM
koff (human serum albumin [31]): 0.0122 s⁻¹
kon (human serum albumin [31]): 80000 M⁻¹ s⁻¹
Kd (mouse serum albumin [32]): 49.4 nM
koff (mouse serum albumin [32]): 0.0298 s⁻¹
kon (mouse serum albumin [32]): 602000 M⁻¹ s⁻¹
EC50 (cynomolgus serum albumin [20]): 7.14 nM
EC50 (porcine serum albumin [21]): 615 nM
EC50 (canine serum albumin [22]): 96.5 nM
EC50 (human serum albumin [23]): 1.41 nM
EC50 (rat serum albumin [25]): 89.4 nM
EC50 (rabbit serum albumin): 847 nM
binding result (equine serum albumin [33]): binds
B4: HSA-18 (designed binder)
chain: MIPRGLSEAKPATPEIQEIVDKVKPQLEEKTNETYGKLEAVQYKTQVLADWWQAKWPHSTNYYIKVRAGDNKYMHLKVFNGPYKVHQSSGGADRVLTGYQVDKNKDDELTGFHHHHHH
notes: also called HSA-18 monomer
